Experimental data published in the DeepSol protein solubility set.

test: soluble on expression in E. coli; label from the status in PepcDB or PDB records

| Sequence | soluble on expression in E. coli |
| --- | --- |
| METEDHAFRIEDIFPFLDPYVSKWFDINYRSLTEPQKYAIPFIHEGRNVLVSSPTGTGKTLTAFLSIINELFMLARSGKLEDKIYCVYISPLKALANDVNKNLRAPLEGIYKIADEDGINLPKIRVSVRSGDTSEGERQKMARKPPHILITTPESFSLTLSSPRMRENLRDVKYVIIDEIHEISSTKRGSLLSANMERLEALRPGILRIGLSATQSP | not soluble |
| METIKISEQELINALCIYIAEKRQVGPEEVLVELMYDDDYGFSAEVEVNGRQQILIQANLIEALRLLLDREYNVNPFAARLQLELDDEEGIYALAKFNNSDD | not soluble |
| METKILYQKVSADLKRRILDGDYEVGGLIPSEGELERYYQVSKITIRKAVEVLVSEGYLEKKSGIGTRVISNDLFNKLTQTQSFTATVGQQGKLTKELIKIERVPAVPALLPSESQGTMLRIKRRYLLDGKPFAVVDHYLPNTLVPTKLTALRHRSLYKILQENGQTITHFQDKFSAVTLADSERALLESQTPLAIRRERKGYDGHQRLVEFSIATYQTDVVPYQINYDVL | not soluble |
| METKYRKPFVYEFITEKEVMNAANDLVKKGIEQKDIYVLTHEKERTDRIADNADVNTIGIKEEGLGTSIINVFQKTGDQLRNKMQELGLNEEEANFYEEKLDEGKILLFVKDLERVGEWLHERRCMYSI | not soluble |
| METLLLVQLFHELALKGKNRPFFLKRAKAHVRRALKGLGVALEGEWPMALLFRLPEEAWPEAKARLQDTLGVERFARVHRTPPDLEALKAALEKALEGQAFGSFRITAKRSDKAFPLTSPEIERALGAFVKGKTGAPVRLKGAEREFVVRVLPGAALLEVERHPGPGGLPPGVSGRVVALLSGGIDSPVAAYRLMRRGAEVVLVHFHPFPLLSGASREKAKALAERLARFQHRLRLHLVPFSEVQRHIIVEAPTAYRVVLYRRYMLRIAEAIAREEGALALCTGDSLGQVASQTLENLHAVNQAATLPVFRPLIGWDKEEIVAEAQRIGTYATSILPDEECCTLFAPKHPVTRARLEVVLETEARLPTEELLALALKEREVLTYTWPGKPLPEEPEGAFIMEHGPA | soluble |
| METSMRYTSNSKSMKIHAKEKVPVNSKTHLQLHGELDTGTGAPSYFCAMIRHFFPEASTGLGVGLHYDKRQKLRCLVRGKKEFPVRADKRVTFNIKGRCDIDQDLNQKNPKGAAEFAWNIMDFKEDQDVRIKVGYEMFDKVPYMQIRENNWTLNANMKGKWNLRYDL | not soluble |
| MEVHKAITAHSRKQNESVKACLQLDAQREAAIEAAVSLASNGKEFSVDVINVVTKQINDLAKNGVTLQRKYVTEEMVMEYVSRLKKKEGR | not soluble |
| MEVPENLKNPQNARREGSNMKCLADYSVEKEVGEGSFSTVYLARRKEPKNDENPEVALKICLKRLILKNKMVPYIHREKEALALISREENAHPGIVTLYATFQDSESLYFVLEYAKYGDLCTLMQKQPDSKFNVADSRYYAANLLSALEHIHKLGIIHRDVKADNLLVKSDGRIMLTDFGSSKFLSDYQKIQENPVEEEQPTGRRSSFVGTAFFVTPELLTGSEMSPSSDLWAFSVTLYLFLTGIYPFNDMSEYLVFRRIQDILYTFSEDFPDENAKNLIERLLVKEQKSRLTSQEIKEHKFFESIDFEHLEQLEPPRIY | not soluble |
| MEVQFKNTRKGYYLNSERIELHKGDVVAVEANPGHDIGTVTLTGKLVKLQMRKHRYNTNNGEPFKIYRIAKQGDLDKYCEAKAREYDTMIQSRQISAELNLDMKIGDVEYQGDGNKAIFYYIADERVDFRQLIRVLAETFHIRVEMKQIGARQEAGRIGGIGPCGRQLCCSAWKMNFVSVNTSAARYQDLALNPQKLTGLCAKLKCCLNYEVDAYVEARKKMPSPEIVLETKESAYHYFKADVFRREVSYSTVPNAPVNLTTISARRAFEVISQNKQGFKPVSLEYDDKKQSSGHELSDILTDNSLTRFDDALSRRRRRNGNGNRDFSDREKAGEPHRTPDSIQPTPRVRSSSRMPSREKSPRPEGGDRRENMRERSRGDARFARPYTNEGGSERMEGARRVVGSGRRPPRQSTPRQEDRQGERKEE | not soluble |
| MEVRFTRGKSAILERSLTRPKTEVSVSAFALLFSEMVQYCQSRVYSVSELQARLADMGQGVGASLLDVLVMREKNGKRETKVLNILLFIKVNVWKALFGKEADKLEQANDDDKTYYIIEKEPLINAYISVPKENSTLNCAAFTGGIVEAILTHSGFPAKVTVHWHKGTTLMIKFDESVIARDKALDGR | soluble |
| MEWKPNRADKTPVYKQIADYIERGISSGEFPSDSKLPSERMLAKELQVNRSTIVAAYEELKSLGVVERQKGSGTRVNTDIWGVSHKRIPNWGRYVEDGSFLPNVPLVQQIRTETQKDDLINLASGELSPELIPSDRFRTILSEKTFMENLGYDHPLGNEMLRKTIAAHVQQYKQIEADSSSILITSGAQQALNLIVQCLLKPGDAIAIEDPSYCFSLPMFKSAGLNIFHLPVDEHGMNPDDLIDLHKKHRIRMVFLNPDYQNPTGTVLSLARRKKILELSSEFGIPIVEDDPYSLISFNGEVNPTLKSMDQNGNVLYISSLSKIVASGLRIGWIIGPTRVIERLADAKQQVDFGHSVFTQWVANQFLESKDFHKHITILRGQLKQRRDVLIAELEGTLGDRVECFVPEGGIHVWCKVKGKFDEYHLLGESIQNGVAFVPGSVLGSKNEYIRFTFGRANIEQIQLGIKRFADTLNEIS | not soluble |
| MEYQHWLREAISQLQASESPRRDAEILLEHVTGRGRTFILAFGETQLTDEQCQQLDALLTRRRDGEPIAHLTGVREFWSLPLFVSPATLIPRPDTECLVEQALARLPEQPCRILDLGTGTGAIALALASERPDCEIIAVDRMPDAVSLAQRNAQHLAIKNIHILQSDWFSALAGQQFAMIVSNPPYIDEQDPHLQQGDVRFEPLTALVAADSGMADIVHIIEQSRNALVSGGFLLLEHGWQQGEAVRQAFILAGYHDVETCRDYGDNERVTLGRYYQ | soluble |
| MEYSHLIPEASHAQTSFGLLYMWANDYEYGVFIDDDTLPHEDADFFGTHMSNLAFEGEIETVSSDEQWVNVLYQNEDEHGLYPRGYPYAAMDETVATEATQVNDVVASQGLWTNVPDLDAVRILMDGDLQGQAQTRTSGADFGDDFVAAEGQYLTVCSMNLAFRREVIPAFYQLPMDDNEWDVGRFDDIWSGVFLKRACDVLGKQIYNGDPLCEHNKAPRSTFSDLTNEVHGLELNEHVWEIVDEAGADADSYAEVFDAIATAMADGDFSDWENGAFLNYCGEFMLDWLECLDELDAAATELEHHHHHH | soluble |
| MFARDIGIDLGTANVLIHVKGKGIVLNEPSVVAIDRNTGKVLAVGEEARSMVGRTPGNIVAIRPLKDGVIADFEITEAMLKYFINKLDVKSFFSKPRILICCPTNITSVEQKAIREAAERSGGKTVFLEEEPKVAAVGAGMEIFQPSGNMVVDIGGGTTDIAVLSMGDIVTSSSIKMAGDKFDMEILNYIKRKYKLLIGERTSEDIKIKVGTVFPGARSEELEIRGRDMVTGLPRTITVCSEEITEALKENAAVIVQAAKGVLERTPPELSADIIDRGVILTGGGALLHGIDMLLAEELKVPVLIAENPMHCVAVGTGIMLENIDKLPRRALK | not soluble |
| MFCEKAMELIRELHRAPEGQLPAFNEDGLRQVLEEMKALYEQNQSDVNEAKSGGRSDLIPTIKFRHCSLLRNRRCTVAYLYDRLLRIRALRWEYGSILPNALRFHMAAEEMEWFNNYKRSLATYMRSLGGDEGLDITQDMKPPKSLYIEVRCLKDYGEFEVDDGTSVLLKKNSQHFLPRWKCEQLIRQGVLEHILS | soluble |
| MFDKKLSSNDWHIQKVEMNHQVYDIETMLADSAFREHEEEQDSSLNTALPEDKTAIEAKEQEQKEKRKRWYELFKKKPKPKSSMGEFVFDQKENRIYGKGYCNRYFASYVWQGDRHIGIEDSGISRKVCKDEHLMAFELEFMENFKGNFTVTKGKDTLILDNQKMKIYLKTP | not soluble |
| MFEAKLANAGLLKKIVESIKDLVTDAPFDCSETAMSLQAMDSSHVALVSLKLEVGLFDTYRCDRTINLGLSLANMSKALKCANNDDTCMLKYEENEGDSIIFTFADPKRDKTQDVTVKMMDIDSEHLGIPDQDYAVVCEMPAGEFQKTCKDLSTFSDSLNITATKAGIVFTGKGDIGSSVVTYSPSSNTDDETEAVTLEVKDPVNVNFSIKYMNQFTKATALSDRVRLSLCNDVPVVVEYPIEENGYLRFYLAPKIDDDENMD | soluble |
| MFEHLCNIDDMTIIGQRSNPLNEDWNEWTLVICTKCKKVYEWQHHSEEQMHGGDLAITAIATDDYLHHKYNINEQDIPQILNKKKKIRRYDRYKKIYLEDYV | not soluble |
| MFEITRPPGVRAHVGVIGGSGLYDPGIVENPVEVKVSTPYGNPSDFIVVGDVAGVKVAFLPRHGRGHRIPPHAINYRANIWALKALGVKWVISVSAVGSLREDYRPGDFVVPDQFIDMTKNRRHYTFYDGPVTVHVSMADPFCEDLRQRLIDSGRRLGYTVHERGTYVCIEGPRFSTRAESRVWKDVFKADIIGMTLVPEINLACEAQLCYATLAMVTDYDVWADRPVTAEEVERVMISNVERARRMLYDVIPKLAGEPELERCSCCRALDTAAI | soluble |
| MFEKVKVSTCFHVTLLKDYIVFYVSNNLNFASRWPRRRRGQRLLPTALRAMMLNPTEALLAEVSKARTSGARITVEEFIPIYKKVEAACGRSTTLKEFQTLLSHFDREGNGQIMLMELKSMLQNGGEKMTNQEARALKPATGLDTIYRNLNFNHKFTLDHSAIGFLRTNQFFDVQMIPVSRFFTVQDPSNALLSYTQKGIDFFEKLGQFSKEKAAIEEEYSTKLRSLAKKYAKKSEEDDEILKSVSYTSSFNSFLQQLDQIATRHQTSAEHIRGGVVSYVASKTCQMRSSRKNAINDLKTINDKLEDQINEMCKSGKCYLKSFKDAENSYQKFYKADKNLEISRLELEKARALANARNEACELAKQDYSALVRKTNAEQKRYHVELLPVIFARLKAVDKECIADMRQVLQKIVSFDDSLADSTEECRKIMQREVGKIDAEGDAQLVLKSVEATIEQPAPFEIEDLGDPKNCDSRTNDSADGSGGKLLKSSPSKNRIIRNFLGILKEKEADEKPEASNNDQLMYTDKSKPAHVRLSCLRSKIRDMEKQLEQAIQGREGITRLQQAYYTNPQHGNPSACTEPLISYAKKIEKLKMDIHNLKEFYAMLEMSVEEGQERSFGGRDTPDTTRSMSGSSTNQSSSKTIEDVLSGEAGNSSSADDSSKNILRQLFTTPKRLISSPKTSKSSTPTPLRRRAEISSPKILRSSFSGAIRKSLSTPDSVKVETAVTVTALFEFAKSSAETMSIEQGEILLVLEHDHGDGWTRTKNCRKHNEESGFVPTSYLQFPQ | soluble |
| MFENESLSFEEQTIIQAAERYVQQELANEASGHDWWHIYRVTQLAKTIAEKEQANLFLCILTALLHDIGDEKFNESEEAGLLKVQQWLEANNVSTEQTNHILSIIANMSFKGGNTGKTVTTLEGKVVQDADRLDAIGAIGIARVMAYSGNKGRLIHDPHKQPREQLTQEEYRNGEDTAIMHFYEKLLKLKEQMNTNYGRLLAEKRHQFMELYLEEFYQEWDGHR | not soluble |
| MFFIGIFGIEEKAKVIRQIDVEICPFCTRKGSYTLFKVYNYLHFFFIPVLRWNTRYFIQTSCCSKVYLITNPQLAHDLEYGKDVPITLADVELFRNLQGMYQEGIDSDFCPNCGNRVSKNFLYCPYCGQKLELEHHHHHH | not soluble |
| MFFIRTAGLRDIEPVRTLLATTWHATYDAIYGADKVNELIAVWHSPQAMKDRVEKKGGEFLVADDGKRIGGMAYGSMSTKMAKTALLHQLYVAPDLQRQGVGRDLFAELETCFPDAEIMRLEVEPKNTVAIAFYEGVGFVEVDRIERMAGIEGLPGIVMEKSLTR | not soluble |
| MFGKGGLGNLMKQAQQMQEKMQKMQEEIAQLEVTGESGAGLVKVTINGAHNCRRVEIDPSLLEDDKEMLEDLVAAAFNDAARRIEETQKEKMASVSSGMQLPPGFKMPF | soluble |
